Publication PMC5413942, “Gating of TonB-dependent transporters by substrate-specific forced remodelling” (Nature Communications, 2017)
Substitutions are numbered along the chain they refer to. Where no end group is shown, it is not given here.

T1: BtuB3A (BtuB I80A/L85A/L96A) (E. coli, UniProt P06129 21-614, I80A | L85A | L96A)
T1 sequence (looked up): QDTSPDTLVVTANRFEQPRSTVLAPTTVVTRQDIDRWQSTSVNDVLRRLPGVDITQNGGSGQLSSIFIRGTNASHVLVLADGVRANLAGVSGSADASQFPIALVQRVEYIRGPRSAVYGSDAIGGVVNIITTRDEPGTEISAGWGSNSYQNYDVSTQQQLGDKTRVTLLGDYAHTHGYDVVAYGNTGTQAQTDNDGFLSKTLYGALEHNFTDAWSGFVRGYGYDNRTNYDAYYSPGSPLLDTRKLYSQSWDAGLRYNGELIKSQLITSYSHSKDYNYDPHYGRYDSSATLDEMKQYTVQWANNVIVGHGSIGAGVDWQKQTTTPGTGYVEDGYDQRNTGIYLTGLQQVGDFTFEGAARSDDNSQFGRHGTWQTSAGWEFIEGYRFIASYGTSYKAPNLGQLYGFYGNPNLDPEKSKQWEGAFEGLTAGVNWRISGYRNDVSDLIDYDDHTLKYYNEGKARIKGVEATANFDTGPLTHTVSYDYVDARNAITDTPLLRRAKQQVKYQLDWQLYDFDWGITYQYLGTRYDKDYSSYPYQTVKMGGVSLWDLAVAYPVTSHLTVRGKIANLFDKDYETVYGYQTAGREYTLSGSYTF

T2: BtuB XL_(loop) (BtuB V29C/V45C) (E. coli, UniProt P06129 21-614, V29C | V45C, disulfide bridge between C29 and C45 (reduced on addition of 2 mM DTT))
T2 sequence (looked up): T1 sequence (looked up) with V29C, V45C, A80I, A85L, A96L

T3: wild-type BtuB (E. coli, UniProt P06129 21-614)
T3 construct: Cyanocobalamin was present at a 100-fold molar excess during reconstitution; also called vitamin B12 TBDT receptor of E. coli
T3 sequence (looked up): T1 sequence (looked up) with A80I, A85L, A96L

B1: Ton box peptide from BtuB (TB_(BtuB)) labelled with Alexa Fluor 488 C5 maleimide (peptide)
peptide: PDTLVVTANRGSWSC(Alexa Fluor 488 C5 maleimide)
notes: also called TB_(BtuB)-Alexa fluor 488; Ton box_(BtuB) peptide; source: synthetic peptide
B2: TonB_(ΔTMD) (soluble TonB, residues 33–239, deletion of the N-terminal transmembrane helix) (domain or fragment)
chain: not shown
notes: Gly-Cys between the (His)6 tag and TonB, translated from the printed forward primer (GGCTGT); the cysteine is for AFM surface attachment; TonB of E. coli, cloned from the genome of E. coli BL21 (DE3), residues 33-239 (without the transmembrane domain, residues 1-32); the forward primer begins at HQVIELP; In the AFM experiments the engineered cysteine was coupled to NHS-PEG24-maleimide on the …
B3: TonBCTD (globular C-terminal domain of TonB without the linker) (domain or fragment)
chain: not shown
notes: Gly-Cys between the (His)6 tag and TonBCTD, translated from the printed forward primer (GGATGT); the cysteine is for AFM surface attachment; C-terminal domain of TonB of E. coli; also called TonB C-terminal domain; source: E. coli BL21 (DE3), pET-23a(+), purified (Ni Sepharose, size exclusion chromatography)

Key:
Conditions in all cases: both partners purified
[1] = biological target: B2; experiment: MST; Alexa Fluor 488-labelled TB_(BtuB) peptide at constant concentration (500 nM mixed 1:1), TonB_(ΔTMD) titrated 7 nM-244 μM in 16 dilutions; 25 mM Tris-HCl pH 7.5, 128 mM NaCl, 5 min at room temperature; fit by the law of mass action
[2] = biological target: T1, BtuB3A (BtuB I80A/L85A/L96A); experiment: single-molecule force spectroscopy (AFM); TonB construct on the AFM probe through NHS-PEG24-maleimide, TBDT (BtuB, its variants or FhuA) in E. coli polar lipid extract liposomes with its ligand adsorbed on mica; dwell 1 s, retraction 1,000 nm s^-1 unless stated otherwise; 25 mM Tris-HCl pH 8.0, 128 mM NaCl, 25 °C; 2 mM DTT added where stated
[3] = biological target: T2, BtuB XL_(loop) (BtuB V29C/V45C); experiment: as above
wild-type BtuB = biological target: T3, wild-type BtuB; experiment: as above

Binder: B1
- Kd [1]: 9.4 ± 0.3 µM

Binder: B2
- binding result [2]: binds
- binding result [3]: binds

Binder: B3
- binding result (wild-type BtuB): binds
